{"source": "patent US20100015650", "proteins": {"B1": {"name": "KIT (protein)", "chain": "TYKYLQKPMYEVQWKVVEEINGNNYVYIDPTQLPYDHKWEFPRNRLSFGKTLGAGAFGKVVEATAYGLIKSDAAMTVAVKMLKPSAHLTEREALMSELKVLSYLGNHMNIVNLLGACTIGGPTLVITEYCCYGDLLNFLRRKRDSFICSKQEDHAEAALYKNLLHSKESSCSDSTNEYMDMKPGVSYVVPTKADKRRSVRIGSYIERDVTPAIMEDDELALDLEDLLSFSYQVAKGMAFLASKNCIHRDLAARNILLTHGRITKICDFGLARDIKNDSNYVVKGNARLPVKWMAPESIFNCVYTFESDVWSYGIFLWELFSLGSSPYPGMPVDSKFYKMIKEGFRMLSPEHAPAEMYDIMKTCWDADPLKRPTFKQIVQLIEKQISESTNHIYSNLANCSPNRQKPVVDHSVRINSVGSTASSSQPLLVHDDV"}, "B2": {"name": "FGFR3 (protein)", "chain": "RLRSPPKKGLGSPTVHKISRFPLKRQVSLESNASMSSNTPLVRIARLSSGEGPTLANVSELELPADPKWELSRARLTLGKPLGEGCFGQVVMAEAIGIDKDRAAKPVTVAVKMLKDDATDKDLSDLVSEMEMMKMIGKHKNIINLLGACTQGGPLYVLVEYAAKGNLREFLRARRPPGLDYSFDTCKPPEEQLTFKDLVSCAYQVARGMEYLASQKCIHRDLAARNVLVTEDNVMKIADFGLARDVHNLDYYKKTTNGRLPVKWMAPEALFDRVYTHQSDVWSFGVLLWEIFTLGGSPYPGIPVEELFKLLKEGHRMDKPANCTHDLYMIMRECWHAAPSQRPTFKQLVEDLDRVLTVTSTDEYLDLSAPFEQYSPGGQDTPSSSSSGDDSVFAHDLLPPAPPSSGGSRT"}, "B3": {"name": "FLT1 (protein)", "chain": "RKMKRSSSEIKTDYLSIIMDPDEVPLDEQCERLPYDASKWEFARERLKLGKSLGRGAFGKVVQASAFGIKKSPTCRTVAVKMLKEGATASEYKALMTELKILTHIGHHLNVVNLLGACTKQGGPLMVIVEYCKYGNLSNYLKSKRDLFFLNKDAALHMEPKKEKMEPGLEQGKKPRLDSVTSSESFASSGFQEDKSLSDVEEEEDSDGFYKEPITMEDLISYSFQVARGMEFLSSRKCIHRDLAARNILLSENNVVKICDFGLARDIYKNPDYVRKGDTRLPLKWMAPESIFDKIYSTKSDVWSYGVLLWEIFSLGGSPYPGVQMDEDFCSRLREGMRMRAPEYSTPEIYQIMLDCWHRDPKERPRFAELVEKLGDLLQANVQQDGKDYIPINAILTGNSGFTYSTPAFSEDFFKESISAPKFNSGSSDDVRYVNAFKFMSLERIKTFEELLPNATSMFDDYQGDSSTLLASPMLKRFTWTDSKPKASLKIDLRVTSKSKESGLSDVSRPSFCHSSCGHVSEGKRRFTYDHAELERKIACCSPPPDYNSVVLYSTPPI"}, "B4": {"name": "FMS (CSFR) (protein)", "chain": "KYKQKPKYQVRWKIIESYEGNSYTFIDPTQLPYNEKWEFPRNNLQFGKTLGAGAFGKVVEATAFGLGKEDAVLKVAVKMLKSTAHADEKEALMSELKIMSHLGQHENIVNLLGACTHGGPVLVITEYCCYGDLLNFLRRKAEAMLGPSLSPGQDPEGGVDYKNIHLEKKYVRRDSGFSSQGVDTYVEMRPVSTSSNDSFSEQDLDKEDGRPLELRDLLHFSSQVAQGMAFLASKNCIHRDVAARNVLLTNGHVAKIGDFGLARDIMNDSNYIVKGNARLPVKWMAPESIFDCVYTVQSDVWSYGILLWEIFSLGLNPYPGILVNSKFYKLVKDGYQMAQPAFAPKNIYSIMQACWALEPTHRPTFQQICSFLQEQAQEDRRERDYTNLPSSSRSGGSGSSSSELEEESSSEHLTCCEQGDIAQPLLQPNNYQFC"}, "B5": {"name": "FLT3 (protein)", "chain": "HKYKKQFRYESQLQMVQVTGSSDNEYFYVDFREYEYDLKWEFPRENLEFGKVLGSGAFGKVMNATAYGISKTGVSIQVAVKMLKEKADSSEREALMSELKMMTQLGSHENIVNLLGACTLSGPIYLIFEYCCYGDLLNYLRSKREKFHRTWTEIFKEHNFSFYPTFQSHPNSSMPGSREVQIHPDSDQISGLHGNSFHSEDEIEYENQKRLEEEEDLNVLTFEDLLCFAYQVAKGMEFLEFKSCVHRDLAARNVLVTHGKVVKICDFGLARDIMSDSNYVVRGNARLPVKWMAPESLFEGIYTIKSDVWSYGILLWEIFSLGVNPYPGIPVDANFYKLIQNGFKMDQPFYATEEIYIIMQSCWAFDSRKRPSFPNLTSFLGCQLADAEEAMYQNVDGRVSECPHTYQNRRPFSREMDLGLLSPQAQVEDS"}, "B6": {"name": "FGFR4 (protein)", "chain": "RGQALHGRHPRPPATVQKLSRFPLARQFSLESGSSGKSSSSLVRGVRLSSSGPALLAGLVSLDLPLDPLWEFPRDRLVLGKPLGEGCFGQVVRAEAFGMDPARPDQASTVAVKMLKDNASDKDLADLVSEMEVMKLIGRHKNIINLLGVCTQEGPLYVIVECAAKGNLREFLRARRPPGPDLSPDGPRSSEGPLSFPVLVSCAYQVARGMQYLESRKCIHRDLAARNVLVTEDNVMKIADFGLARGVHHIDYYKKTSNGRLPVKWMAPEALFDRVYTHQSDVWSFGILLWEIFTLGGSPYPGIPVEELFSLLREGHRMDRPPHCPPELYGLMRECWHAAPSQRPTFKQLVEALDKVLLAVSEEYLDLRLTFGPYSPSGGDASSTCSSSDSVFSHDPLPLGSSSFPFGSGVQT"}, "B7": {"name": "IRR (protein)", "chain": "YGKKRNRTLYASVNPEYFSASDMYVPDEWEVPREQISIIRELGQGSFGMVYEGLARGLEAGEESTPVALKTVNELASPRECIEFLKEASVMKAFKCHHVVRLLGVVSQGQPTLVIMELMTRGDLKSHLRSLRPEAENNPGLPQPALGEMIQMAGEIADGMAYLAANKFVHRDLAARNCMVSQDFTVKIGDFGMTRDVYETDYYRKGGKGLLPVRWMAPESLKDGIFTTHSDVWSFGVVLWEIVTLAEQPYQGLSNEQVLKFVMDGGVLEELEGCPLQLQELMSRCWQPNPRLRPSFTHILDSIQEELRPSFRLLSFYYSPECRGARGSLPTTDAEPDSSPTPRDCSPQNGGPGH"}, "B8": {"name": "FGFR2 (protein)", "chain": "RMKNTTKKPDFSSQPAVHKLTKRIPLRRQVTVSAESSSSMNSNTPLVRITTRLSSTADTPMLAGVSEYELPEDPKWEFPRDKLTLGKPLGEGCFGQVVMAEAVGIDKDKPKEAVTVAVKMLKDDATEKDLSDLVSEMEMMKMIGKHKNIINLLGACTQDGPLYVIVEYASKGNLREYLRARRPPGMEYSYDINRVPEEQMTFKDLVSCTYQLARGMEYLASQKCIHRDLAARNVLVTENNVMKIADFGLARDINNIDYYKKTTNGRLPVKWMAPEALFDRVYTHQSDVWSFGVLMWEIFTLGGSPYPGIPVEELFKLLKEGHRMDKPANCTNELYMMMRDCWHAVPSQRPTFKQLVEDLDRILTLTTNEEYLDLSQPLEQYSPSYPDTRSSCSSGDDSVFSPDPMPYEPCLPQYPHINGSVKT"}, "B9": {"name": "HER4 (ERBB4) (protein)", "chain": "RRKSIKKKRALRRFLETELVEPLTPSGTAPNQAQLRILKETELKRVKVLGSGAFGTVYKGIWVPEGETVKIPVAIKILNETTGPKANVEFMDEALIMASMDHPHLVRLLGVCLSPTIQLVTQLMPHGCLLEYVHEHKDNIGSQLLLNWCVQIAKGMMYLEERRLVHRDLAARNVLVKSPNHVKITDFGLARLLEGDEKEYNADGGKMPIKWMALECIHYRKFTHQSDVWSYGVTIWELMTFGGKPYDGIPTREIPDLLEKGERLPQPPICTIDVYMVMVKCWMIDADSRPKFKELAAEFSRMARDPQRYLVIQGDDRMKLPSPNDSKFFQNLLDEEDLEDMMDAEEYLVPQAFNIPPPIYTSRARIDSNRSEIGHSPPPAYTPMSGNQFVYRDGGFAAEQGVSVPYRAPTSTIPEAPVAQGATAEIFDDSCCNGTLRKPVAPHVQEDSSTQRYSADPTVFAPERSPRGELDEEGYMTPMRDKPKQEYLNPVEENPFVSRRKNGDLQALDNPEYHNASNGPPKAEDEYVNEPLYLNTFANTLGKAEYLKNNILSMPEKAKKAFDNPDYWNHSLPPRSTLQHPDYLQEYSTKYFYKQNGRIRPIVAENPEYLSEFSLKPGTVLPPPPYRHRNTVV"}, "B10": {"name": "FLT4 (protein)", "chain": "MRRPAHADIKTGYLSIIMDPGEVPLEEQCEYLSYDASQWEFPRERLHLGRVLGYGAFGKVVEASAFGIHKGSSCDTVAVKMLKEGATASEHRALMSELKILIHIGNHLNVVNLLGACTKPQGPLMVIVEFCKYGNLSNFLRAKRDAFSPCAEKSPEQRGRFRAMVELARLDRRRPGSSDRVLFARFSKTEGGARRASPDQEAEDLWLSPLTMEDLVCYSFQVARGMEFLASRKCIHRDLAARNILLSESDVVKICDFGLARDIYKDPDYVRKGSARLPLKWMAPESIFDKVYTTQSDVWSFGVLLWEIFSLGASPYPGVQINEEFCQRLRDGTRMRAPELATPAIRRIMLNCWSGDPKARPAFSELVEILGDLLQGRGLQEEEEVCMAPRSSQSSEEGSFSQVSTMALHIAQADAEDSPPSLQRHSLAARYYNWVSFPGCLARGAETRGSSRMKTFEEFPMTPTTYKGSVDNQTDSGMVLASEEFEQIESRHRQESGFS"}, "B11": {"name": "IGF1R (protein)", "chain": "RKRNNSRLGNGVLYASVNPEYFSAADVYVPDEWEVAREKITMSRELGQGSFGMVYEGVAKGVVKDEPETRVAIKTVNEAASMRERIEFLNEASVMKEFNCHHVVRLLGVVSQGQPTLVIMELMTRGDLKSYLRSLRPEMENNPVLAPPSLSKMIQMAGEIADGMAYLNANKFVHRDLAARNCMVAEDFTVKIGDFGMTRDIYETDYYRKGGKGLLPVRWMSPESLKDGVFTTYSDVWSFGVVLWEIATLAEQPYQGLSNEQVLRFVMEGGLLDKPDNCPDMLFELMRMCWQYNPKMRPSFLEIISSIKEEMEPGFREVSFYYSEENKLPEPEELDLEPENMESVPLDPSASSSSLPLPDRHSGHKAENGPGPGVLVLRASFDERQPYAHMNGGRKNERALPLPQSSTC"}, "B12": {"name": "EphB4 (protein)", "chain": "LCLRKQSNGREAEYSDKHGQYLIGHGTKVYIDPFTYEDPNEAVREFAKEIDVSYVKIEEVIGAGEFGEVCRGRLKAPGKKESCVAIKTLKGGYTERQRREFLSEASIMGQFEHPNIIRLEGVVTNSMPVMILTEFMENGALDSFLRLNDGQFTVIQLVGMLRGIASGMRYLAEMSYVHRDLAARNILVNSNLVCKVSDFGLSRFLEENSSDPTYTSSLGGKIPIRWTAPEAIAFRKFTSASDAWSYGIVMWEVMSFGERPYWDMSNQDVINAIEQDYRLPPPPDCPTSLHQLMLDCWQKDRNARPRFPQVVSALDKMIRNPASLKIVARENGGASHPLLDQRQPHYSAFGSVGEWLRAIKMGRYEESFAAAGFGSFELVSQISAEDLLRIGVTLAGHQKKILASVQHMKSQAKPGTPGGTGGPAPQY"}}, "biological_target": "T1, BRB1 tyrosine kinase substrate peptide", "T1 chain": "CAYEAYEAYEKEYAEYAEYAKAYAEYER", "data": [{"protein": "B1", "values": [{"measurement": "Signal to Noise ratio with BRB1 Peptide (TR-FRET kinase assay; kinase 2 nM)", "value": 1.5}]}, {"protein": "B2", "values": [{"measurement": "Signal to Noise ratio with BRB1 Peptide (TR-FRET kinase assay; kinase 0.25 nM)", "value": 24.4}]}, {"protein": "B3", "values": [{"measurement": "Signal to Noise ratio with BRB1 Peptide (TR-FRET kinase assay; kinase 0.25 nM)", "value": 4.1}]}, {"protein": "B4", "values": [{"measurement": "Signal to Noise ratio with BRB1 Peptide (TR-FRET kinase assay; kinase 0.25 nM)", "value": 3}]}, {"protein": "B5", "values": [{"measurement": "Signal to Noise ratio with BRB1 Peptide (TR-FRET kinase assay; kinase 0.1 nM)", "value": 25.9}]}, {"protein": "B6", "values": [{"measurement": "Signal to Noise Ratio with BRB1 Peptide (TR-FRET kinase assay; kinase 3 nM)", "value": 17.7}]}, {"protein": "B7", "values": [{"measurement": "Signal to Noise ratio with BRB1 Peptide (TR-FRET kinase assay; kinase 0.5 nM)", "value": 19.2}]}, {"protein": "B8", "values": [{"measurement": "Signal to Noise ratio with BRB1 Peptide (TR-FRET kinase assay; kinase 0.25 nM)", "value": 27.1}]}, {"protein": "B9", "values": [{"measurement": "Signal to Noise ratio with BRB1 Peptide (TR-FRET kinase assay; kinase 0.1 nM)", "value": 3.1}]}, {"protein": "B10", "values": [{"measurement": "Signal to Noise ratio with BRB1 Peptide (TR-FRET kinase assay; kinase 0.25 nM)", "value": 20}]}, {"protein": "B11", "values": [{"measurement": "Signal to Noise ratio with BRB1 Peptide (TR-FRET kinase assay; kinase 0.25 nM)", "value": 25.1}]}, {"protein": "B12", "values": [{"measurement": "Signal to Noise ratio with BRB1 Peptide (TR-FRET kinase assay; kinase 0.5 nM)", "value": 29.8}]}]}
